The text below walks through data of patent US7534862.

Assay [1] deals with hyper-IL-6 (H-IL-6), a fusion protein comprising IL-6+sIL-6R (UniProt P08887). The assay is described as follows: cell-based or functional assay.
For assay [2], the target named is IL-6/sIL-6R complex (100 ng/ml IL-6 + 50 ng/ml sIL-6R) (UniProt P05231). As to the kind of experiment: cell-based or functional assay.
Chain of IL-6/sIL-6R complex (100 ng/ml IL-6 + 50 ng/ml sIL-6R) (P05231 30-212 limits assumed, chain 1 of 2): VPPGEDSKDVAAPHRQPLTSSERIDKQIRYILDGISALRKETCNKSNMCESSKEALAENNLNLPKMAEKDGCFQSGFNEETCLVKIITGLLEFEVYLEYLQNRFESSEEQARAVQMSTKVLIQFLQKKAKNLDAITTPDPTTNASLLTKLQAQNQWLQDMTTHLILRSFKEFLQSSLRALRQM
Chain of IL-6/sIL-6R complex (100 ng/ml IL-6 + 50 ng/ml sIL-6R) (P08887 20-358 limits assumed, chain 2 of 2, further chain): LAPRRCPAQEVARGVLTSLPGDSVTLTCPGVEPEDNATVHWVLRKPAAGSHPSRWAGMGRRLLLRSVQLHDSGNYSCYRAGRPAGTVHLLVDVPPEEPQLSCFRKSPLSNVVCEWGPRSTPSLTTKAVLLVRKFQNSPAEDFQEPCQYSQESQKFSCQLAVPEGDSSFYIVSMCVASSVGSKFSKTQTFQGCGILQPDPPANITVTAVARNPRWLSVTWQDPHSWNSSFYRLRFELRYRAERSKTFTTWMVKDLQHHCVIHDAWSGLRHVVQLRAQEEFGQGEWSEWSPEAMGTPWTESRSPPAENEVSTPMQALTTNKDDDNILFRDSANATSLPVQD

Chain of sgp130TagPEG (PEGylated sgp130Tag / sgp130(D1-D3)-His, forked PEG) (P40189 other isoform, or with tags, fused parts or gaps): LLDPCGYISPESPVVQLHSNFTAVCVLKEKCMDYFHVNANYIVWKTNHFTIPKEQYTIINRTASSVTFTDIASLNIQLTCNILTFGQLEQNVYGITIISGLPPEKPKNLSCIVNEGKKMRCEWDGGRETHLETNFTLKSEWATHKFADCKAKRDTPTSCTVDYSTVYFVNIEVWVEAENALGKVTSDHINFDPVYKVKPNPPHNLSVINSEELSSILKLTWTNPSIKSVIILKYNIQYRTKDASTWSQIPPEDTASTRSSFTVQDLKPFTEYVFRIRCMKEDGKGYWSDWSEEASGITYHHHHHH
Chain of hyper-IL-6 (H-IL-6), a fusion protein comprising IL-6+sIL-6R (P08887 20-323 limits assumed, chain 1 of 2): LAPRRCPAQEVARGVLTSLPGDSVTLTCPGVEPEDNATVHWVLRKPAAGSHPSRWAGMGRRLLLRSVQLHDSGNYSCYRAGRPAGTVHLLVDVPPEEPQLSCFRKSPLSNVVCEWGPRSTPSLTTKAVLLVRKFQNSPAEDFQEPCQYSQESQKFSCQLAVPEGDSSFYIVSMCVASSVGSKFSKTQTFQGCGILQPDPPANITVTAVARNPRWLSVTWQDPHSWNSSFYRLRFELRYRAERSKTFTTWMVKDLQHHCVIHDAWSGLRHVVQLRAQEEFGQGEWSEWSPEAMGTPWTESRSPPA
Chain of hyper-IL-6 (H-IL-6), a fusion protein comprising IL-6+sIL-6R (P05231 30-212 limits assumed, chain 2 of 2, further chain): as the sequence (P05231 30-212 limits assumed, chain 1 of 2) above
Chain of Human sgp130Fc (P40189 23-619 limits assumed): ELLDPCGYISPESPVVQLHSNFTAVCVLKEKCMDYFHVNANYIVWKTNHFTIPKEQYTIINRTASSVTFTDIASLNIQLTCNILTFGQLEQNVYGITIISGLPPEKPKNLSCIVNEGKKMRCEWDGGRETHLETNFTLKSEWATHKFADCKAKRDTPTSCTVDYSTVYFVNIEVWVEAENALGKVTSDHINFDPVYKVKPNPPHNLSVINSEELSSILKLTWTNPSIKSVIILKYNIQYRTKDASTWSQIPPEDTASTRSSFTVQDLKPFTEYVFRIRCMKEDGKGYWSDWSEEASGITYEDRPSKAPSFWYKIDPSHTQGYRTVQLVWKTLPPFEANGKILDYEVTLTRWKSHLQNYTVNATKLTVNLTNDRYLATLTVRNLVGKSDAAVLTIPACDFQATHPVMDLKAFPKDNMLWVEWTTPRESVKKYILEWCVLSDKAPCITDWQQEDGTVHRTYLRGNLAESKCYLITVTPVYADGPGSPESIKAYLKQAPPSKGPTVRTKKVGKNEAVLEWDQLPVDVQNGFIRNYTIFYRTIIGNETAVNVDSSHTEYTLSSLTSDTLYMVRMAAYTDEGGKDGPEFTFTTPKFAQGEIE

“Human sgp130Fc (from UniProt P40189 23-619) (Fc fusion)”: the STAT3 activity (relative luciferase activity, pSTAT3-TA-Luc reporter in BAF/gp130 cells) at 10 ug/ml inhibitor, 5 ng/ml H-IL-6 (% of activity with H-IL-6 alone) in assay [1] is 26.

Consider “sgp130TagPEG (PEGylated sgp130Tag / sgp130(D1-D3)-His, forked PEG) (from UniProt P40189 24-322) (receptor)”, for which, in assay [2], the factor of improvement over sgp130Fc in inhibition of BAF/gp130 proliferation (fold vs sgp130Fc) lay in the range of 1.5 to 3 and the half-maximal [3H]-thymidine incorporation of BAF/gp130 cells (proliferation) was in the range of 1 to 5 ng/mL. In assay [1], this substance gave an STAT3 activity (relative luciferase activity, pSTAT3-TA-Luc reporter in BAF/gp130 cells) at 10 ug/ml inhibitor, 5 ng/ml H-IL-6 (% of activity with H-IL-6 alone) of 19; a concentration giving half-maximal activation of STAT3 (H-IL-6-induced, luciferase reporter in BAF/gp130 cells) of 2.5 µg/mL; an efficiency relative to sgp130Fc in inhibition of H-IL-6-induced STAT3 activation (fold vs sgp130Fc) of 2 to 3; a factor of improvement over sgp130Fc in inhibition of BAF/gp130 proliferation (fold vs sgp130Fc) of 1.5 to 3. This substance also returned a half-maximal [3H]-thymidine incorporation of BAF/gp130 cells (proliferation) in assay [1] of 1 to 5 ng/mL.
